Results: patent publication US20090238754A1, “USE OF PYRENE TO CARRY PEPTIDES ACROSS THE BLOOD BRAIN BARRIER” (Adlyfe, Inc., priority 2008, published 2009)
pyrene = pyrene label

Columns and labels:
Assay type in all cases: in vivo
Aβ plaques [1] = biological target: T1, Aβ plaques (Homo sapiens, UniProt P05067); experiment: Fluorescent labeling of Aβ plaques in brain after intravenous administration to hAPP transgenic mice (Example 3); settings: intravenous 30 mg/kg, tail vein, 6 hours after administration
T1 construct: from tissue; host or cells: brain of living hAPP transgenic mice (in vivo dosing, brain sections imaged)
Procedure: hAPP transgenic mice were administered the Aβ peptide-agent conjugate described above intravenously at a dose of 30 mg/kg through the tail vein. Mice were sacrificed at 6 hours after the administration of the conjugate, and brain sections were prepared for imaging as described above. After a section was imaged for conjugate fluorescence, it was bleached of fluorescence and stained with a Thioflavin S stain.

Aβ plaques [2] = biological target: T1, Aβ plaques; experiment: Intranasal administration of peptide agent conjugate to hAPP751SL transgenic mice and littermate controls, brain fluorescence imaging (Example 1)
Excerpt: The following illustrates the ability of peptide agent conjugates to target Aβ plaques (e.g., insoluble self-aggregates of Aβ protein associated with Alheimer's disease) in vivo. A peptide agent specific for Aβ corresponding to residues 16-35 of the Aβ protein (SEQ ID NO:3) with an added C-terminal lysine residue (e.g., SEQ ID NO:5) for conjugating pyrene, and labeled at each terminus with pyrene is used.
In vivo studies use four homozygous hAPP751SL transgenic 10 month old mice and four littermate controls (siblings not carrying the transgene). The labeled peptide agent conjugate is administered intranasally, at 10 μl liquid per administration (at concentrations of from 0.1 to 2.0 mg/ml) with an administration interval of a planned half of an hour, adjusted according to the condition of the animal after treatment.
At the end of the treatment, mice are sacrificed and CSF and brains are extracted. (All mice are sedated by standard inhalation anaesthesia, Isofluran, Baxter).
Cerebrospinal fluid is obtained by blunt dissection and exposure of the foramen magnum. Upon exposure, a Pasteur pipette is inserted to the approximate depth of 0.3-1 mm into the foramen magnum. CSF is collected by suctioning and capillary action until flow fully ceases. CSF is immediately frozen and kept at −80° C. until use.
After CSF sampling, the stomach, stomach content and the brains are rapidly removed. Brains are hemisected, and the right hemisphere of all mice are immersion fixed in freshly produced 4% Paraformaldehyde/PBS (pH 7.4) for one hour at room temperature, and transferred to a 15% sucrose/PBS solution for 24 hours to ensure cryoprotection. Thereafter, brains are frozen in liquid isopentane on the next day and stored at −80° C. until used for histological investigations. The other brain half is immediately shock frozen in liquid isopentane for future use.
To assess the specifity of staining by the peptide agent conjugate, fluorescence is excited using a UV-2A and B-1E filter of a microscope to detect probable auto-fluorescence in the lower spectrum. […]

[3] = Clearance of conjugate determined by analysis of cerebrospinal fluid; settings: 6 hours post-administration; CSF revealed no evidence of circulating conjugate
Procedure: The rate of localization and clearance or degradation of a conjugate can be assessed experimentally, for example, by administering the conjugates to mice and sacrificing them for analysis at different times post-administration, such as at time periods including 2 minutes, 10 minutes, 30 minutes, 60 minutes, 1 hour, 2 hours, 3 hours, 4 hours, 5 hours, 6 hours, or longer, post-administration.

Aβ plaques [4] = biological target: T1, Aβ plaques; experiment: Fluorescent labeling of Aβ plaques in brain after intranasal administration to hAPP transgenic mice (Example 2); settings: for fluorescent labeling of Aβ plaques (FIG. 1): three 10 μl injections at 20 minute intervals, sacrificed 6 hours later, hAPP transgenic mice
Procedure: Three groups of three hAPP transgenic mice were treated with vehicle (10% DMSO), the Aβ peptide-agent conjugate described above, or pyrene butyrate. Mice received three 10 μl injections at 20 minute intervals over a one hour period. Mice were sacrificed 6 hours later and tissues were collected. Flourescence in sagital sections was performed using fixed frozen tissue and a UV-2A fileter-equipped microscope. All plaque counts were performed on a digital images using Image-Pro-Plus software (Media Cybernetics, Inc., Bethesda, Md.).

T1 sequence (P05067 672-713 limits assumed): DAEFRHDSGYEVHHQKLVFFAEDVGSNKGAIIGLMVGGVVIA

Substance | correlation between conjugate fluorescence and Thioflavin S staining (Aβ plaques [1]; cortex (FIG. 3A)) | correlation between conjugate fluorescence and Thioflavin S staining (Aβ plaques [1]; hippocampus (FIG. 3B)) | binding to amyloid in the brain (Aβ plaques [2]; hAPP751SL transgenic mice) | localization and binding in the brain (Aβ plaques [2]; nontransgenic mice) | crossing of the blood-brain barrier (BBB) (Aβ plaques [2]; transgenic mice treated with the highest dose, brain images vs control mice and transgenic vehicle control) | clearance, as determined by analysis of cerebrospinal fluid [3] | correlation between conjugate fluorescence and Thioflavin S staining (Aβ plaques [4]; hippocampus (data not shown)) | coincidence of conjugate fluorescence with 6E10 antibody and Thioflavin S plaque staining (Aβ plaques [4]; sequential sagital brain sections, co-merged images) | fluorescent labeling of Aβ plaques (FIG. 1) (Aβ plaques [4])
AD185: Peptide of residues 16-35 of the Aβ protein with added C-terminal lysine (SEQ ID NO:5), labeled at each terminus with pyrene (pyrene-KLVFFAEDVGSNKGAIIGLMK-pyrene) | significant correlation | significant correlation | binds to the amyloid and agglomerates outside the blood vessel in the brain | reaches the olfactory bulb, but does not bind to a specifiable morphological structure | crosses the blood-brain barrier | cleared | positive correlation | coincided with the antibody and Thioflavin S plaque staining | showed fluorescent labeling of Aβ plaques
pyrene butyrate [reference compound] | – | – | – | – | – | – | – | – | did not
